{"source": "paper PMC3907290", "about": "“De Novo Prediction of PTBP1 Binding and Splicing Targets Reveals Unexpected Features of Its RNA Recognition and Function”", "target": "PTBP1 (Homo sapiens, UniProt P26599 1-557)", "sequence (P26599 whole entry)": "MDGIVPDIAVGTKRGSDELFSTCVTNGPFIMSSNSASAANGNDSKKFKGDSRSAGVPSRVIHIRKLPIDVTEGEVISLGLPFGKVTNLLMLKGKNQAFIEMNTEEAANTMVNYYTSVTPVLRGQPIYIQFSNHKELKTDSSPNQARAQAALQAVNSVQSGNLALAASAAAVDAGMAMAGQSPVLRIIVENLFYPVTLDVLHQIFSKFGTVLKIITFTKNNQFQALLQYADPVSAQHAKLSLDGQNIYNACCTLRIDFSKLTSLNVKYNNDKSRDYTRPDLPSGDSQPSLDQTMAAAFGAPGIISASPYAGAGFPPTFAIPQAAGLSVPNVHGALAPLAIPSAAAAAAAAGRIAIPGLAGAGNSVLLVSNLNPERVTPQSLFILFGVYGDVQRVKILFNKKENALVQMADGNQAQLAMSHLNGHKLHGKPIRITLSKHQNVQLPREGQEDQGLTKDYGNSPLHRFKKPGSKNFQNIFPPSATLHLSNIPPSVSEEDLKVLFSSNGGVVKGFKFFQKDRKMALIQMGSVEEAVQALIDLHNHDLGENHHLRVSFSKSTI", "assay": "EMSA; apparent Kd; tRNA competitor; EMSA, 10 uL: 6 uL DG buffer (20 mM Hepes-KOH pH 7.9, 20% glycerol, 80 mM K-glutamate, 0.2 mM EDTA, 0.2 mM PMSF), about 2.2 mM MgCl2, 0.05 mg/ml tRNA, RNaseOut", "details": "protein: recombinant; label: 32P (alpha-32P UTP, internal)", "data": [{"binder": "probe 10 (ssRNA) RNA: GUGAGGGCUCUUUCUUCGUGGGACCGUAGAUAGGUAGCUGCUGCUGGUCUCACACUGUUCUCCCUACAG", "values": [{"measurement": "Kd", "value": 0.073, "unit": "µM"}]}]}
